This note sets out measurements from article PMC5435347.

For this experiment, the target named is YFP-MKT1 (Trypanosoma brucei) (UniProt Q587E3). As to the kind of experiment: co-IP; extracts of bloodstream-form trypanosomes immunoprecipitated with anti-GFP (GBP beads) for YFP-MKT1, Western blot for V5 or myc; 100-150 mM NaCl, 2 h at 4°C; with or without RNase; control cells without YFP-MKT1. In general terms: In western blotting, separated proteins are transferred to a membrane and probed.
UniProt Q587E3, sequence (Q587E3 whole entry): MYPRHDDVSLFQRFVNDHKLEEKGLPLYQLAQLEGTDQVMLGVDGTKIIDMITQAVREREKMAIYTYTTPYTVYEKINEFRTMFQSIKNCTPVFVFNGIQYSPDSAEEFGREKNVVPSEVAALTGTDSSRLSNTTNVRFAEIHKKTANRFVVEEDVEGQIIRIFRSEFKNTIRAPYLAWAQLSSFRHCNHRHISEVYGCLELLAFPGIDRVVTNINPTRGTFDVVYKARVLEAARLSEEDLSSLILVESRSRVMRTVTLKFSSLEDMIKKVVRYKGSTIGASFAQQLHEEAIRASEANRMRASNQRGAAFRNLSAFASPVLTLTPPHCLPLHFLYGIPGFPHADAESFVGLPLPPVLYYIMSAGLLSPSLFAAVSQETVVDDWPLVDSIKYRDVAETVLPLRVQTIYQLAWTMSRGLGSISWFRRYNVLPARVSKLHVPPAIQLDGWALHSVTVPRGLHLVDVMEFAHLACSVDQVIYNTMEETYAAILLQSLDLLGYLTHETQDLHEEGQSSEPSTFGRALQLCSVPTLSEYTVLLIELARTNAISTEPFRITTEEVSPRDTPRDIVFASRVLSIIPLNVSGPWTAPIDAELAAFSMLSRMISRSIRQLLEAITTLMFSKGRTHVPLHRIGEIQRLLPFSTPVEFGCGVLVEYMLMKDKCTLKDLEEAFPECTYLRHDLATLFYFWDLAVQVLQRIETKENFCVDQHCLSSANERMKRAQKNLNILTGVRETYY

V5-ZC3H32 (natural protein): the proportion pulled down is less than 1%. Turning to ZC3H32-myc (natural protein), the proportion pulled down is less than 1%.
